Data taken from the DeepSol protein solubility set.

Experiment: soluble on expression in E. coli; label from the status in PepcDB or PDB records

Row | Sequence | soluble on expression in E. coli
1 | MSKEKYSFEDLIKVMEELRKKCPWDREQTHESLKKYLIEEAYEVLDAIDSKDDEKLKEELGDLLLQVVFHSQIAKERGAFDINDVIDTLVKKLIERHPHVFGCANPEDVLKNWEKKKMEKRKSIFEGIPKHLPALMRSQKLQDRTSQVGFDFQDISQVFEKIQEEINELKESLEKGDRENIKHEIGDILTAVVELARFVNVDAEEALQEANERFIRRFSYIEKKAKEEGRKLEDMSLEEMDKLWMEAKKLEEQGKLS | soluble
2 | HAIFEREGNNLYCEVPINFTMAALGGEIEVPTLDGRVNLKIPGETQTGKLFRMRGKGVKSVRGGAQGDLLCRVVVETPVGLNEKQKQLLKELQESFGGPTGENN | not soluble
3 | MAQFVYTMHRVGKVVPPKRHILKNISLSFFPGAKIGVLGLNGAGKSTLLRIMAGIDKDIEGEARPQPDIKIGYLPQEPQLNPEHTVRESIEEAVSEVVNALKRLDEVYALYADPDADFDKLAAEQGRLEEIIQAHDGHNLNVQLERAADALRLPDWDAKIANLSGGERRRVALCRLLLEKPDMLLLDEPTNHLDAESVAWLERFLHDFEGTVVAITHDRYFLDNVAGWILELDRGEGIPWEGNYSSWLEQKDQRLAQEASQEAARRKSIEKELEWVRQGTKGRQSKGKARLARFEELNSTEYQKRNETNELFIPPGPRLGDKVLEVSNLRKSYGDRLLIDDLSFSIPKGAIVGIIGPNGAGKSTLFRMISGQEQPDSGTITLGETVKLASVDQFRDSMDNSKTVWEEVSGGLDIMKIGNTEMPSRAYVGRFNFKGVDQGKRVGELSGGERGRLHLAKLLQVGGNMLLLDEPTNDLDIETLRALENALLEFPGCAMVISHDRWFLDRIATHILDYQDEGKVEFFEGNFTEYEEYKKRTLGADALEPKRIKYKRIAK | soluble
4 | MSGELKDRLVARALEEGFVSCRVCRPWDVPEMPARLGAFVEAGYHGQMGWMAERMEWRGDPAALWPEARSVIMLAESYAPDTDPMEVVGQPDRGAISVYARGKDYHDLVKKRLKRLARWLIEAGGGEVKVFVDTAPVPEKALGQAAGLGWQGKHTNLVSRDWGNWAFLGSVFTTLDLPSDPVGRDNCGSCSACLTACPTDAFPAPYRLDARRCISYLTIEHKGPVDEELRAKLGNRIYGCDDCLAACPWNKFAVAASDLRYGARPELSAPALADLARLDDAGFREMFSGSPIKRIGRDRFVRNVLYAIGNSGLPALRPVAQDLAQDSDPTVADAARWAAAKLAMSR | not soluble
5 | MSRRAGTPTAKKVTQLVNVEEHVEGFRQVREAHRRELIDDYVELISDLIREVGEARQVDMAARLGVSQPTVAKMLKRLATMGLIEMIPWRGVFLTAEGEKLAQESRERHQIVENFLLVLGVSPEIARRDAEGMEHHVSEETLDAFRLFTQKHGAK | soluble
6 | MPLEASELKPTAGPLEASELKPTAGPLEASELKPTAGPLEASELKPTAGPLEASELKPTAGPLEASELKPTAGPLEASELKPTAGMTDAFIFENKKAAFLTLGCKLNFAETSTIGKALAEQGVRPVREGEKADICVINTCSVTELADKKCRNAIRKLHKEHPGALMIVTGCYAQLKPEEIARIDGVDIVLGADEKLDLVSILSQRPIQGFAEQTILTTPTKDIRKFQPGCSADDRTRHFLKVQDGCDYHCSYCTIPKARGRSRNGSIESLVRQAEAVAAEGGKEIVLTGVNIGDFGRSTGETFLDLLRALDQVEGIERYRIGSIEPNLLSDELIDFCASAHRIAPHFHMPLQSGSDDVLKLMRRRYDTALFRERVEHIRRALPHAFIGIDVIVGTRGEKPEFFEDCYSFLQDKISFSRLHVFSYSERPGTQALQIPYKVDAREKQRRSRRLLDLSDLRLAEFYRSQEGTHRRVLWEDVCHEGLMQGFTENYIRVAAPYAADSVGKVEEIVLGKTDPSGEYVQTADTIFPLEHHHHHH | soluble
7 | NTDIRNIPVGVVDQSGSTAGRIITQSVKVTQVVDIKETYATAQEAEQAIQDGIVRAVLILPSDLTQRMMQGRELGQWIVDGSDTMISSAILSLQTMPLTDFDFEIRPAPSKTFEVALYYNPSRRSAVN | not soluble
8 | MQQERTVKVSKYLSKHLRHQPERIGLTPDEGGWVEIDALVAAAAAHGFPFTRQELDHVVATNDKRRFAVEGTRIRASQGHSIAVDLRLPVATPPPYLYHGTVARHLEAIRAEGLRPMNRHDVHLSPDRETATRVGARRGRPVVLPVDAATMHRDGHVFHVSANGVWLTQHVPSRYLRFPAPHLEHHHHHH | not soluble
9 | MDTEKLRRQLIDRITDNYSEYRASLLLKDRQELIDGAGRIADTATVFQHLADRSYKPEELEYLLKFQNPLEVVTEHWADYELMPDVLDALIADTVDRQDDLTLFPLATDAPAQKPESLRKFLNVDLETVLPQIMKQKTAFYQTDLNYALDAMREGATSGDPAKQNFVLIFRQSGVECLNERDMFIGGTRSFNTLQFYHTQTREPVLTYSVELTGDGKDGLRGNLYQQDNHRLAEYAGRTASPYTDVTVTFTGGKEVRLPEKEFYYEKAASLKYLHGSIKEVRNEAEDETVVQGAVKREHDRRREMPRGYFAVHLQALDEQRIQAEADRLSSALTDLKQPNSPDKEKFMVEISVYFLPLASQHDMNRLFEKVRDQVGQTVYITPPDDTHKRYFVMRREERAQEQPERKPSIKAQLSAKPVPGDKPATKTKDREVR | not soluble
10 | MAQLFFKYGAMNSGKTIEILKVAHNYEEQDKPVVLMTSGLDTRDGVGKVSSRIGLRRDAIPIFEETNVFDLINDLSYKPFCVLVDECQFLNKHHVIEFARIVDELDIPVMAFGLKNDFRNELFEGSKYLLLYADKLEELKTICWFCHKKATMNLHYIDGNPVYEGDQVQIGGNEAYYPVCRKHYFHPKTVNEEQLEHHHHHH | soluble
11 | MGSDKIHHHHHHMTLATMKLQILSDLHIDSYVRQSHPIGHIPKTDADIVLVAGDTANSDIGMPWLQEQAARLQVPLITIAGNHEYFNEDVLHFDKKLATWDNYDSESKQGVQFLQCQYIDIGEVRILGCTLWTDYQYQANEDTMVAALRFMRDYKQIYAGSELFSPEVSMQIHAKQRQWLKQALITAKALGKKTVVMSHHSISPLSVSEKYANLPSNAAFVSDLSQWMYEDWAPALWVHGHTHEAFDYHIHKTRVIVNPRAYPNEVSSTALAFAWDRVIDIG | not soluble
12 | MGSDKIHHHHHHMLDQNQTPLIDGIKACIARPHAAFYTPGHKRGRGIAQPLADLLGEAVFGADLTELANLDNLSAPQGVIQEAQRLAAAAFGAAQTWFLVNGSTCGVEAAIMATCRPGDKIILPRNVHSSAIAGLILSGAIPIFIHPEYDQVLDIAHSMTPEAVKAALQQHPDAKAVLAVYPTYYGVCGDLEAIAQITHQYNIPLLVDEAHGAHFTFHPELPTPALAAGADLTVQSIHKVLGAMTQASMLHIQGDRINAVRVSQALQLLQSTSPSYVLLASLDAARQQMALCGKQLMSRTLQLANEARERISQIPGLSVLQPPTMTPSSGFTTLDKTRLTITVSGLGLTGFAAEEILDEQLGVTAEFATFKHLTFIISLGNTTADIEQLVQGFTTLAETTPPAKALVNPRVNSNLEYFSEISPRDAFFADSETLSIEQARDRICAEIICPYPPGIPVIMPGEVITKPAIEYLQHIQSSGGFITGCADTSLSTLKVLVIGH | not soluble
13 | MAQEDVTAVATNGAGPVETHLVFTEFKQMLLVEAQKVGDAVTFYKSAFGAIESGHSLYPKRKLDQELPHVLSSELNLAGSSFVVCDVSSLPGFSTAKSEGSGVTFLLGTKDAEAAVAKAVDAGAVKVEVTEAEVELGFKGKVTDPFGVTWIFAEKKTVITDENKEV | soluble
14 | MIFSDWPWRHWRQVRGETIALRLNDEQLNWRELCARVDELASGFAVQGVVEGSGVMLRAWNTPQTLLAWLALLQCGARVLPVNPQLPQPLLEELLPNLTLQFALVPDGENTFPALTSLHIQLVEGAHAATWQPTRLCSMTLTSGSTGLPKAAVHTYQAHLASAQGVLSLIPFGDHDDWLLSLPLFHVSGQGIMWRWLYAGARMTVRDKQPLEQMLAGCTHASLVPTQLWRLLVNRSSVSLKAVLLGGAAIPVELTEQAREQGIRCFCGYGLTEFASTVCAKEADGLADVGSPLPGREVKIVNNEVWLRAASMAEGYWRNGQLVSLVNDEGWYATRDRGEMHNGKLTIVGRLDNLFFSGGEGIQPEEVERVIAAHPAVLQVFIVPVADKEFGHRPVAVMEYDHESVDLSEWVKDKLARFQQPVRWLTLPPELKNGGIKISRQALKEWVQRQQ | soluble
15 | MAYQRIRQPKLSDVIEQELERLIVEGTLSPGQQLPPERELAKQFEVSRPSIREAIQRLEAKRLLTRRQGGGTFVSDRIWQSFSDPLLNLLSSHSETQLDLLEARHALEGICAYFAALRGTEEDFARIQHCVTRIAEAQALNNVDEEAERVMAFLIAITEAAHNVVLLHIVRSLSPLLEQNIRQNFKLLHRRPEAVEKVSKHRANIVDAIVSGQPEKAREMSHSHLAYIEETLLDLTREQTRRERSLRRIQQGNEPQ | soluble
16 | SLNDNFKKQPHHLIYEELLQQGITLGITTRGDGLSDYPKNAFNMARYIDDRPYNITQHQLQLAEEIAFDRKNWVFPIQTHENKVACITKDDIGTNIDTLTDALHGIDAMYTYDSNVLLTMCYADCVPVYFYSTKHHFIALAHAGWRGTYTEIVKEVLKHVNFDLKDLHVVIGPSTSSSYEINDDIKNKFETLPIDSANYIETRGRDRHGIDLKKANAALLIYYGVPKENIYTTAYATSEHLELFFSYRLEKGQTGRMLAFIGQQ | soluble
17 | MAKTITKDSFFHSRLQQFVANSLFPAGAGDWYKNKGYGKKGEVDDEAPFRDFVEKQKTDKKSHYYKEFQGLDLSLKKVKTKLVSGESCQLEVMKCQPESNEPKKPGTGKHIVYFPGANTYYQACFRDISTACKETGATVHAFNFPGTGLSSGKVREANDLINAGISVVSSLIKQGVHPDDIILQGDCYGASIALEVKKQLEDQADIKVRAIMNNVFKSFKAAVCDMITQSPWLPNILKSIVKRLLEFTGWHVTPGKKYKHADPYQCHIQHLGDQTLESSTLSGKVSKYHHEIQTGQTKSQKRAPITDTCPEEYRKDRDELDRKHYVRVKESAKERLASKFGVDKFGRVNAHFADLCELEMLDGQSVYQGFVNDYIARSNAYIEKHPQKGIKEVQDDLRKLHYLQPADSIEITEDEAQDFNTVVDLITEEQQLRHDRFNDNTIGKSISM | not soluble
18 | MSKFGGATAKVIKGALKVRQTRAALTLTNEAVSRIRVLLAQQNDANALKIGVRQKGCNGLTYTLEYAKDKQKFDEEVEQDGIKVWIEPKAQLSLLGSEMDYVTDKLSSEFVFRNPNIKGTCGCGESFSI | not soluble
19 | MRSVTLPLLMFCLGLAACSGDGGRRPSTCEVISPPDVMVPTEQNRQRVEQQSSGDPTAGQKPVECP | not soluble
20 | MSLKARKSWISDKGPLSVSTQCELAGVTRSGYYGQSKSLMPNTEDLELMKLIDEEYTRHPFYGSRRMKRVLLAQGRKVNRKRVQRLMRNLGLAGIAPGPNTSKPHPQHKIYPYLLRGLVITRPNHVWSTDVTYCRLPGGFMYLTAVIDWYSRKVLAWRLSNSLDSSFCVDCLEEAIRKYGMPEIFNTDQGTQYTSEAFTGVLKSHDIRISMDGRGRALDNIFVERLWRNVKQEDLYLKGYETAVEMMRGLTEYFRFYNIERPHQSLGYKTPDEVYESATGGGARIVDKFFQKSVSEGSSEATGPQQEAAEGHHHHHH | soluble
